{
  "source": "patent US20230270824A1",
  "about": "“INTERFERON-BASED CANCER TREATMENT METHOD AND PHARMACEUTICAL COMPOSITION” (XIAMEN AMOYTOP BIOTECH CO., LTD., priority 2019, published 2023)",
  "key": {"[1]": {"system": "transplanted breast cancer 4T1", "test": "Interferon combined with gemcitabine, transplanted breast cancer 4T1 in mice (Example 9)", "type": "in vivo, BALB/c mice", "settings": "53 days after tumor inoculation", "protocol": "(§1) In this example, a comparative study on the efficacy of PEG-mIFN-α4 intermittent administration (once every 48 hours for 3 consecutive times, then drug withdrawal for 144 hours; for 5 rounds), PEG-mIFN-α4 continuous administration (once every 48 hours for 25 consecutive times), PEG-mIFN-α4 in combination with gemcitabine (PEG-mIFN-α4: once every 48 hours for 3 consecutive times, then drug withdrawal for 240 hours, 4 rounds; gemcitabine: once a week) on transplanted breast cancer 4T1 in mice was performed.\n(§2) On the day when the tumor was inoculated, they were randomly divided into PEG-mIFN-α4 continuous administration group (N=24, female 12, male 12), PEG-mIFN-α4 intermittent administration group (N=24, female 12, male 12), the normal saline control group (N=24, female 12, male 12), the gemcitabine only group (N=24, female 12, male 12), and PEG-mIFN-α4 combined with gemcitabine group (N=24, female 12, male 12).\n(§3) For the PEG-mIFN-α4 intermittent administration group, PEG-mIFN-α4 was administered once every 48 hours for 3 consecutive times, then drug withdrawal for 144 hours; for 5 rounds. For the PEG-mIFN-α4 continuous administration group, PEG-mIFN-α4 was administered once every 48 hours. For the PEG-mIFN-α4 combined with gemcitabine group, PEG-mIFN-α4 was administered once every 48 hours for 3 consecutive times, then drug withdrawal for 240 hours; for 4 rounds; and gemcitabine was administered once a week. For the gemcitabine only group, gemcitabine was administered once a week. For the saline control group, equal volume of saline was administered. Gemcitabine was injected intraperitoneally, 60 mg/kg.\n(§4) SAS9.4 software was used for comparing the difference in mortality, and the statistical tests were all two-sided tests."}, "[2]": {"test": "Pharmacokinetic study of single subcutaneous injection in healthy BALB/c mice (double-antibody sandwich ELISA)", "protocol": "6-8 weeks old, SPF grade BALB/c mice (N=60, with fifty-fifty of male and female mice) were injected with a single injection of 1 μg/mouse PEG-mIFN-α4 subcutaneously on the back of the neck. Plasma samples were collected before the injection (0 h) and after the injection at 15 h, 24 h, 36 h, 48 h, 72 h, 96 h, 120 h, 168 h, 216 h, 264 h, 312 h, to determine the blood concentration. Phoenix WinNonlin 6.4 software was used to calculate the pharmacokinetic parameters."}, "[3]": {"system": "transplanted liver cancer H22", "test": "Continuous vs intermittent administration, transplanted liver cancer H22 in mice (Example 4)", "type": "in vivo, BALB/c mice", "settings": "continuous administration: 1 μg s.c. once every 48 hours, 21 times, Day 40 after tumor inoculation"}, "[4]": {"system": "transplanted lung cancer LLC", "test": "Interferon combined with gemcitabine, transplanted lung cancer LLC in mice (Example 6)", "type": "in vivo, C57BL/6N mice", "protocol": "as §1, with “four” for “3”, “192” for “144”, “32” for “25”, “360” for “240”, “[…]” for “breast”, “LLC” for “4T1”\nas §2, with “(N=26,” for “(N=24,”, “13,” for “12,”, “13),” for “12),”, “13).” for “12).”\nas §3, with “4” for “3”, “192” for “144”, “[…]” for “5”, “360” for “240”\nas §4"}, "[5]": {"system": "mouse fibroblast/encephalomyocarditis virus (L929/EMCV)", "test": "Specific activity by mouse fibroblast/encephalomyocarditis virus (L929/EMCV) cytopathic inhibition method", "type": "cell-based", "settings": "stock solution; commercial mIFN-α4 (R&D) as the standard", "protocol": "(§5) The bacterial endotoxin content of the deglycosylated mIFN-α4 stock solution was determined by the Limulus reagent method as lower than 60 EU/mg. specific activity was determined as 5.4×10^8 U/mg by using the commercial mIFN-α4 (R&D, catalog number 12115-1) as the standard, and by using the mouse fibroblast/encephalomyocarditis virus (L929/EMCV) cytopathic inhibition method.\nas §5, with “PEG-mIFN-α4” for “deglycosylated mIFN-α4”, “15” for “60”, “Specific” for “specific”, “6.1×10^6” for “5.4×10^8”"}, "[6]": {"system": "transplanted liver cancer H22", "test": "Interferon combined with gemcitabine, transplanted liver cancer H22 in mice (Example 5)", "type": "in vivo, BALB/c mice", "settings": "108 days observation", "protocol": "In this example, a comparative study on the efficacy of PEG-mIFN-α4 intermittent administration (once every 48 hours for three consecutive times, then drug withdrawal for 144 hours; for 8 rounds), PEG-mIFN-α4 continuous administration (once every 48 hours for 42 consecutive times), PEG-mIFN-α4 in combination with gemcitabine (PEG-mIFN-α4: once every 48 hours for three consecutive times, then drug withdrawal for 240 hours, 6 rounds; gemcitabine: once a week) on H22 transplanted liver cancer in mice was performed.\nas §2\nGemcitabine was injected intraperitoneally, 60 mg/kg.\nas §3, with “for three” for “for 3”, “for 8” for “for 5”, “for 6” for “for 4”, “administered.” for “administered. Gemcitabine was injected intraperitoneally, 60 mg/kg.”\nSurvival analysis was performed for all groups to compare the differences between groups."}},
  "note": "Several values for one entry are separate records, joined by “and”; a condition that tells them apart may be missing. Identical values can stand only once.",
  "data": [
    {"molecule": "PEG-mIFN-α4: deglycosylated recombinant mouse interferon α4 modified with 40 kD Y-type polyethylene glycol (YPEG-NHS); SEQ ID NO: 6 (protein, 40 kD Y-type PEG; deglycosylated; amino acid sequence of peginterferon murine 4) CDLPHTYNLGNKRALTVLEEMRRLPPLSCLKDRKDFGFPLEKVDNQQIQKAQAILVLRDLTQQILNLFTSKDLSATWNATLLDSFCNDLHQQLNDLKACVMQEPPLTQEDSLLAVRTYFHRITVYLRKKKHSLCAWEVIRAEVWRALSSSTNLLARLSEEKE", "values": [
      {"measurement": "Mortality", "setting": "[1]; continuous administration (once every 48 hours, 25 times)", "value": "87.5% and 58.3%"},
      {"measurement": "Mortality", "setting": "[1]; intermittent administration (every 48 h x3, withdrawal 144 h, 5 rounds)", "value": 87.5, "unit": "%"},
      {"measurement": "Individual blood concentration", "setting": "[2]; collected at 96 h, individual mice 1-5, single s.c. 1 μg/mouse", "value": 87.5, "unit": "ng/mL"},
      {"measurement": "Cl_F—obs", "setting": "[2]; mouse, in vivo, sc", "value": 0.07, "unit": "mL/h"},
      {"measurement": "T1/2", "setting": "[2]; mouse, in vivo, sc", "value": 28.3, "unit": "h"},
      {"measurement": "Tmax", "setting": "[2]; mouse, in vivo, sc", "value": 24, "unit": "h"},
      {"measurement": "Vz_F—obs", "setting": "[2]; mouse, in vivo, sc", "value": 2.91, "unit": "mL"},
      {"measurement": "Median survival period (Time after tumor inoculation, days)", "setting": "[3]", "value": "38 days and 38.0 days"},
      {"measurement": "Mortality", "setting": "[4]; continuous administration (1 μg/mouse s.c. once every 48 hours), 45 days after tumor inoculation", "value": 100, "unit": "%"},
      {"measurement": "Mortality", "setting": "[4]; continuous administration (once every 48 hours), Day 64 post tumor inoculation", "value": 100, "unit": "%"},
      {"measurement": "Mortality", "setting": "[4]; intermittent administration (every 48 h x4, withdrawal 192 h), 45 days after tumor inoculation", "value": 34.6, "unit": "%"},
      {"measurement": "Mortality", "setting": "[4]; intermittent administration (every 48 h x4, withdrawal 192 h), Day 64 post tumor inoculation", "value": 84.6, "unit": "%"},
      {"measurement": "Specific activity", "setting": "[5]", "value": "6.1×10^6 U/mg"},
      {"measurement": "Mean survival period (days post tumor inoculation)", "setting": "[6]; continuous administration: 1 μg/mouse s.c. once every 48 hours, 42 times", "value": 37.0, "unit": "days"},
      {"measurement": "Mean survival period (days post tumor inoculation)", "setting": "[6]; intermittent administration: 1 μg/mouse s.c. every 48 h x3, withdrawal 144 h, 8 rounds", "value": 64.0, "unit": "days"}
    ]}
  ]
}
